Here are results for two molecules from US20250019435A1 (ALBERT EINSTEIN COLLEGE OF MEDICINE, published 2025).

Test [1] has as its target T1, PVR expressed on transduced cells (PVR-YFP) (UniProt P15151 21-417).
T1 construct: whole, on cells; On NIH 3T3 or Raji cells; also called PVR/3T3; PVR-YFP/3T3; not shown: YFP ('PVR-YFP ... fusion protein')
T1 sequence (looked up): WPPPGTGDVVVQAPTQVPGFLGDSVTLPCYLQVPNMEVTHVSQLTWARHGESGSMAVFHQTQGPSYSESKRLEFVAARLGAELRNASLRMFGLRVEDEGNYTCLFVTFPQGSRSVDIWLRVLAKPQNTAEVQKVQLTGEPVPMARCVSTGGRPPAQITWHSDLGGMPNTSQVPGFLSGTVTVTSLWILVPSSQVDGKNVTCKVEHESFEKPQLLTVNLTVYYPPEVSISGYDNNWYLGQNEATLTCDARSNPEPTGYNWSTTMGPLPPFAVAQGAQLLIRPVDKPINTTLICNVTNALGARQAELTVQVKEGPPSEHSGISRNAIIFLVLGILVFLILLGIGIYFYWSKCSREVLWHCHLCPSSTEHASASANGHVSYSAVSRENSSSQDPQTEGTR
Nature of the test: confocal imaging of conjugates of transduced primary NK cells with PVR-YFP/Raji cells. On the procedure: (§1) The KIR2DL5⁻ primary NK cells were transduced with WT KIR2DL5 or the indicated mutants, and then examined for protein expression with F8B30 (open) or mIgG1 (shaded). NC, negative control. Data are representative of 2 independent experiments. (B and C) Transduced primary NK cells were treated with (+) or without (−) pervanadate (VO₄) for 5 minutes. Cell lysates were immunoprecipitated with anti-KIR2DL5 antibodies. Phospho-tyrosine (4G10), SHP-1, SHP-2, and total KIR2DL5 were detected by immunoblots (B). Quantification of p-Tyr, SHP-1, and SHP-2 association with WT or mutant KIR2DL5 in VO₄-treated NK cells (C). WCL, whole-cell lysates. (D) Representative imaging of cell conjugates acquired upon the indicated transduced primary NK and PVR/Raji cell contact followed by staining with anti-KIR2DL5 mAb and DAPI. Scale bars: […]. (E) Lysis of scramble control or PVR^KO A427 (top) and Jurkat (bottom) by WT or mutant KIR2DL5-transduced primary NK cells at the indicated E/T ratios. Data are mean for duplicate measurements and representative of 3 independent experiments with 3 different donors. In A, and B, data are representative of 3 independent experiments. *P<0.05, **P<0.01, ***P<0.001, ****P<0.0001, by 1-way ANOVA (C), or paired Student's t test (D).
NK-Raji conjugation assay. […] Cell mixtures were then loaded onto poly-L-lysine-precoated slides and fixed with 4% formaldehyde at RT for 15 minutes. After blocking with 5% normal goat serum at RT for 1 hour, cells were stained with 20 µg/mL anti-KIR2DL5 antibodies (a mixture of 8 homemade clones) at 4° C. overnight and then with goat anti-mIgG (H+L) Alexa Flour 647 (Invitrogen) at RT for 2 hours. The cells were permeabilized by 0.1% Triton X-100 at RT for 15 minutes and stained with Alexa Flour Plus 405 Phalloidin (Life Technologies) for 1 hour at RT. The slides were then mounted by Gold Antifade Mountant without DAPI (Life Technologies). The mean pixel intensity of synapse and non-synapse was respectively measured and statistically analyzed. Images were acquired by Leica SP8 confocal microscope and processed by ImageJ (NIH).

For a further test, the target named is T2, SHP-2 (human, UniProt Q06124 2-593).
T2 sequence (looked up): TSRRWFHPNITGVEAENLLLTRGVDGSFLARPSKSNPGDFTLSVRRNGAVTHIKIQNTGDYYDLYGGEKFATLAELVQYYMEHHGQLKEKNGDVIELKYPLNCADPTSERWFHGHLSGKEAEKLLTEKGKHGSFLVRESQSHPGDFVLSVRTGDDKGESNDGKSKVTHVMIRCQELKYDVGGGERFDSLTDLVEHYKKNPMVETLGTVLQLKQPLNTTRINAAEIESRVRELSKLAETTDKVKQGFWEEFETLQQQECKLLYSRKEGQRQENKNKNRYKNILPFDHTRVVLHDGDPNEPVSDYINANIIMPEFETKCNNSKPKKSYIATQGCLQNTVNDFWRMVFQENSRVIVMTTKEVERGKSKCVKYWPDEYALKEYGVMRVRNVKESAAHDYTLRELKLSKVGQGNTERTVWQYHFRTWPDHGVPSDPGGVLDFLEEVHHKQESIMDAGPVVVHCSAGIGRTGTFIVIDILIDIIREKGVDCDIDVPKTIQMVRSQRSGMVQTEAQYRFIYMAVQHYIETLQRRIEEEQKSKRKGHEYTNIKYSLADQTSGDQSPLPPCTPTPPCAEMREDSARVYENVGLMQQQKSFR
In words: co-immunoprecipitation with anti-KIR2DL5 from transduced primary NK cells with or without pervanadate, immunoblot. As to the method: as §1, with “FIG. 12A-12E: KIR2DL5 ITIM and ITSM mediated NK cell inhibition and suppressed downstream signaling. (A) Tyrosine (Y) in ITIM and ITSM of KIR2DL5 was mutated to phenylalanine (F). The” for “The”
Coimmunoprecipitation and immunoblotting. NK92 cells or primary NK cells pretreated with or without 1 mM pervanadate (New England BioLabs) were lysed in Pierce immunoprecipitation lysis buffer supplemented with protease and phosphatase inhibitor cocktail (Thermo Fisher Scientific). Proteins from whole-cell lysis were further incubated with anti-KIR2DL5 antibodies and Dynabeads protein G (Thermo Fisher Scientific) for further immunoprecipitation. […]
Background: In western blotting, separated proteins are transferred to a membrane and probed.

The target in test [2] is T3, KIR2DL5-Ig fusion protein (KIR2DL5 extracellular domain fused to human IgG1 Fc) (human, UniProt Q8N109 22-240).
T3 construct: A D0-only fusion (H22-A128) also exists; also called KIR2DL5-human Ig fusion protein; KIR2DL5 DO-D2-Ig; not shown: human IgG1 Fc tag
In words: BLI, Octet RED96; KIR2DL5-Ig captured on anti-human Fc biosensors, mAb in solution; global 1:1 fit. On the procedure: Biolayer interferometry. The affinities of anti-KIR2DL5 mAbs were analyzed by biolayer interferometry using an Octet RED96 system (ForteBio, Pall LLC). Briefly, anti-human Fc capture biosensors (ForteBio, Pall LLC) were preloaded with KIR2DL5-Ig and then dipped into a solution containing mAb at 2-fold serial dilutions (from 200 to 1.5 μg/mL). Data were analyzed using Forte Pall (Port Washington, New York, USA) software 9.0. The global data fitting to a 1:1 binding model was used to estimate values for the Kₒₙ (association rate constant), Koff (dissociation rate constant), and KD (equilibrium dissociation constant).

Test [3] has as its target T4, D0-deleted KIR2DL5 expressed on 3T3 cells (human, UniProt Q8N109 119-375).
T4 construct: the signal peptide 1-21 is left out; also called KIR2DL5 dD0; DO-deleted KIR2DL5
Nature of the test: flow cytometry, transduced 3T3 cells. The text has this:
(§2) FIG. 15A-15E: Characterization of anti-KIR2DL5 specific monoclonal antibodies. (Related to FIGS. 8A-8D). (A) The protein sequence of KIR2DL5. The extracellular domain of KIR2DL5 was composed of tandem DO-D2 domains. The cytoplasmic tail of KIR2DL5 contained an immunoreceptor tyrosine-based inhibition motif (ITIM) and immunoreceptor tyrosine-based switch motif (ITSM). Domains were predicted and annotated based on UniProtKB (Q8N109). (B) The specificity of anti-KIR2DL5 mAbs. 3T3 cells transduced with indicated KIR family members were stained with 5 μg/ml of indicated anti-KIR2DL5 mAbs (open) or mIgG1 (shaded). (C, D) The affinity of anti-KIR2DL5 mAbs. C: Kinetic binding curves for F8B30 and B19C11. D: Data were acquired from kinetic binding curves detected by the Octet Red96 BLI instrument for indicated clones. (E) 3T3 cells transduced with DO-deleted (KIR2DL5 dD0) or D2-deleted KIR2DL5 (KIR2DL5 dD2) were stained with 5 μg/ml of indicated anti-KIR2DL5 mAbs. In B-E, data are representative of three independent experiments.

Test [4] has as its target T5, D2-deleted KIR2DL5 expressed on 3T3 cells (human, UniProt Q8N109 22-375).
T5 construct: also called KIR2DL5 dD2
Nature of the test: flow cytometry, transduced 3T3 cells.
From the text: as §2
In general terms: Flow cytometry measures light scatter and fluorescence of single cells or particles in a stream.

B1: Y298F (receptor)
receptor chain: HEGGQDKPLLSAWPSAVVPRGGHVTLLCRSRLGFTIFSLYKEDGVPVPELYNKIFWKSILMGPVTPAHAGTYRCRGSHPRSPIEWSAPSNPLVIVVTGLFGKPSLSAQPGPTVRTGENVTLSCSSRSSFDMYHLSREGRAHEPRLPAVPSVNGTFQADFPLGPATHGGTYTCFGSLHDSPYEWSDPSDPLLVSVTGNSSSSSSSPTEPSSKTGIRRHLHILIGTSVAIILFIILFFFLLHCCCSNKKNAAVMDQEPAGDRTVNREDSDDQDPQEVTFAQLDHCVFTQTKITSPSQRPKTPPTDTTMYMELPNAKPRSLSPAHKHHSQALRGSSRETTALSQNRVASSHVPAAGI
notes: also called KIR2DL5 Y298F (ITIM mutant) on transduced primary NK cells
For B1, the binding result in test [1] is given as “binds”; with SHP-2, “no binding”.

B2: anti-KIR2DL5 mAb clone B7B23 (antibody, V domains shown)
VH: QVQLQQSGAELVRPGVSVKISCKGSGYTFTDYTMHWVKQSHAKSLEWIGVISPYYGDASYNQKFKGKATMTVDKSSSTAYMELARLTSEDSAIYYCARGLLRGFAYWGQGTLVTVS
VL: DIVMTQSPSSKDMSVGQKVTMRCKSSKSLLNSSNQKKYLAWYQQKPGQSPKLLVYFASIRESGVPDRFIGSGSGTDFTLTISSVQVEDLADYFCQQHYSTPWTFGGG
notes: also called B7B23 (IgG1, κ)
In test [2], B2 displayed a Kd of 41.3 pM, a koff of 6.96e-05 s⁻¹ and a kon of 1.69e+06 M⁻¹ s⁻¹. In test [3], the binding result is “no binding (tested: 5 µg/ml)”. For the same molecule, the binding result in test [4] is given as “no binding (tested: 5 µg/ml)”.

A word on the Kd: it is the constant that tells how readily two partners part at equilibrium. Higher therefore signals lower affinity. In general, koff refers to the first-order rate constant of dissociation. A word on the kon: it is the second-order rate constant of association.
